Data on one substance can be found in publication PMC10995120.

The experiment addresses GFP-CD16a (Homo sapiens) (UniProt P08637). Kind of experiment: SPR. In general terms: SPR reads the build-up and loss of mass on a sensor chip optically.
Sequence of UniProt P08637 (P08637 other isoform, or with tags, fused parts or gaps): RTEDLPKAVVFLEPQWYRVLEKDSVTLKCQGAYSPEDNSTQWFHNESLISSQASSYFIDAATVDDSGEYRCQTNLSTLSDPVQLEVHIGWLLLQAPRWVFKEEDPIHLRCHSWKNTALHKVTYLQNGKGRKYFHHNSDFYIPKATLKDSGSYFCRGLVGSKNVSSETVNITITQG

In general, Kd refers to the constant that tells how readily two partners part at equilibrium. A higher Kd goes with weaker binding. rituximab: the Kd worked out at 360 nM.
